Data on four molecules can be found in article PMC5180592 (Science (New York, N.Y.), 2015).

B1: Nup85 (natural protein, S. cerevisiae, UniProt P46673 1-744, looked up)
chain: MTIDDSNRLLMDVDQFDFLDDGTAQLSNNKTDEEEQLYKRDPVSGAILVPMTVNDQPIEKNGDKMPLKFKLGPLSYQNMAFITAKDKYKLYPVRIPRLDTSKEFSAYVSGLFEIYRDLGDDRVFNVPTIGVVNSNFAKEHNATVNLAMEAILNELEVFIGRVKDQDGRVNRFYELEESLTVLNCLRTMYFILDGQDVEENRSEFIESLLNWINRSDGEPDEEYIEQVFSVKDSTAGKKVFETQYFWKLLNQLVLRGLLSQAIGCIERSDLLPYLSDTCAVSFDAVSDSIELLKQYPKDSSSTFREWKNLVLKLSQAFGSSATDISGELRDYIEDFLLVIGGNQRKILQYSRTWYESFCGFLLYYIPSLELSAEYLQMSLEANVVDITNDWEQPCVDIISGKIHSILPVMESLDSCTAAFTAMICEAKGLIENIFEGEKNSDDYSNEDNEMLEDLFSYRNGMASYMLNSFAFELCSLGDKELWPVAIGLIALSATGTRSAKKMVIAELLPHYPFVTNDDIEWMLSICVEWRLPEIAKEIYTTLGNQMLSAHNIIESIANFSRAGKYELVKSYSWLLFEASCMEGQKLDDPVLNAIVSKNSPAEDDVIIPQDILDCVVTNSMRQTLAPYAVLSQFYELRDREDWGQALRLLLLLIEFPYLPKHYLVLLVAKFLYPIFLLDDKKLMDEDSVATVIEVIETKWDDADEKSSNLYETIIEADKSLPSSMATLLKNLRKKLNFKLCQAFM

Assay [1] addresses T1, Nup120 (S. cerevisiae, UniProt P35729 1-1037).
T1 sequence: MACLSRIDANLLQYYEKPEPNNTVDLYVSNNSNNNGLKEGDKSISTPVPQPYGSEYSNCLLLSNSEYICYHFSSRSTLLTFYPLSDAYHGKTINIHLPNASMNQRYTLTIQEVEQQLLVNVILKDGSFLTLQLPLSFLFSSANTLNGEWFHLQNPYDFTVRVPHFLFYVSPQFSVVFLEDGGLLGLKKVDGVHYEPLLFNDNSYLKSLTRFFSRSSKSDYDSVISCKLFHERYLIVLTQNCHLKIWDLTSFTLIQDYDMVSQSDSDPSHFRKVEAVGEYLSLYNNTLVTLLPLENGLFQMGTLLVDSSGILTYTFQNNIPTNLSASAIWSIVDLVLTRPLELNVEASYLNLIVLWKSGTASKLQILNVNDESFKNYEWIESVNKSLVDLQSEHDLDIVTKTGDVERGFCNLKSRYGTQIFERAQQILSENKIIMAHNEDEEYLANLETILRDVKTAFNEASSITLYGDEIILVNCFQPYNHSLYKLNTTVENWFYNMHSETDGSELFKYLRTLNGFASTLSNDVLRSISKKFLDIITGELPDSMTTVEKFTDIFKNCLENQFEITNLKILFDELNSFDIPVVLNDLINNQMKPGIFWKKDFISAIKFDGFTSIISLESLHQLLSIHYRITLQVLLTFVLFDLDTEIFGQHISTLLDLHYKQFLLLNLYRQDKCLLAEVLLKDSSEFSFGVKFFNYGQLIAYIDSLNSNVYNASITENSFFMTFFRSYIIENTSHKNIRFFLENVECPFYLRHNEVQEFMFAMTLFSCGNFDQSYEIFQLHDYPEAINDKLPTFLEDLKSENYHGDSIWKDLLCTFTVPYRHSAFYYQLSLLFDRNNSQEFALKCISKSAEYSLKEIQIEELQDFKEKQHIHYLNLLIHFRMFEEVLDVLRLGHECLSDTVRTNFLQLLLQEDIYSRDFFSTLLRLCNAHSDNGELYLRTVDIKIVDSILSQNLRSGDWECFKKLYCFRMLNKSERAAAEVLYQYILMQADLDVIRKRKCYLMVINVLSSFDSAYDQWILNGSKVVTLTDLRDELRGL
As to the kind of experiment: crystal structure.

For assay [2], the target named is T1, Nup120. The assay can be described thus: SEC. On the technique in general: In gel filtration, larger molecules generally elute earlier.
The target in assay [3] is B1. The assay can be described thus: crystal structure.
Assay [4] has as its target Nup85 (S. cerevisiae, UniProt P46673). As to the kind of experiment: crystal structure.
Another assay concerns the target Nup145C (S. cerevisiae, UniProt P49687). The assay can be described thus: crystal structure.

Chain of Nup145C (P49687 680-1317): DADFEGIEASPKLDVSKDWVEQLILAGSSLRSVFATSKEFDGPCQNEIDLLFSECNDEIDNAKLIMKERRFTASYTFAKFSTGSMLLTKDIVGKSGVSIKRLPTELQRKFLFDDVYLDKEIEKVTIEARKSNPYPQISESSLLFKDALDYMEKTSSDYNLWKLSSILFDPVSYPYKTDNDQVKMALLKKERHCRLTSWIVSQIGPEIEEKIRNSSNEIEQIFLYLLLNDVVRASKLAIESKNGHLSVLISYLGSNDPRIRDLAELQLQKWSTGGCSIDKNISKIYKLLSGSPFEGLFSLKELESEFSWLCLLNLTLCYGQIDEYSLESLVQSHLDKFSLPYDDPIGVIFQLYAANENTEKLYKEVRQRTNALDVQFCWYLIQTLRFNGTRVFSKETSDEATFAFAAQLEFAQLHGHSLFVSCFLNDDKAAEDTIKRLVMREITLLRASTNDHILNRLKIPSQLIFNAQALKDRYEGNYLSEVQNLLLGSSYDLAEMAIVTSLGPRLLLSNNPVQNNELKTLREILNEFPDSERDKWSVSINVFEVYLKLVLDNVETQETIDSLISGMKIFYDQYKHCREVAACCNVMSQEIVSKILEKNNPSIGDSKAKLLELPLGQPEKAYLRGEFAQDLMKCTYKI

B1: the binding result with Nup120 [1] is on record as “binds”.

B2: Nup85 C-terminal domain (domain or fragment, S. cerevisiae, UniProt P46673 545-744, looked up)
chain: QMLSAHNIIESIANFSRAGKYELVKSYSWLLFEASCMEGQKLDDPVLNAIVSKNSPAEDDVIIPQDILDCVVTNSMRQTLAPYAVLSQFYELRDREDWGQALRLLLLLIEFPYLPKHYLVLLVAKFLYPIFLLDDKKLMDEDSVATVIEVIETKWDDADEKSSNLYETIIEADKSLPSSMATLLKNLRKKLNFKLCQAFM
With B2, the binding result with Nup120 [2] was “binds”.

B3: Seh1 (natural protein, S. cerevisiae)
chain: MQPFDSGHDDLVHDVVYDFYGRHVATCSSDQHIKVFKLDKDTSNWELSDSWRAHDSSIVAIDWASPEYGRIIASASYDKTVKLWEEDPDQEECSGRRWNKLCTLNDSKGSLYSVKFAPAHLGLKLACLGNDGILRLYDALEPSDLRSWTLTSEMKVLSIPPANHLQSDFCLSWCPSRFSPEKLAVSALEQAIIYQRGKDGKLHVAAKLPGHKSLIRSISWAPSIGRWYQLIATGCKDGRIRIFKITEKLSPLASEESLTNSNMFDNSADVDMDAQGRSDSNTEEKAELQSNLQVELLSEHDDHNGEVWSVSWNLTGTILSSAGDDGKVRLWKATYSNEFKCMSVITAQQ
For B3, the binding result in the assay with Nup85 [3] was “binds”.

B4: synthetic antibody sAB-57 (Fab, V domains shown)
VH: EVQLVESGGGLVQPGGSLRLSCAASGFNVSYSSIHWVRQAPGKGLEWVASIYPYYGSTSYADSVKGRFTISADTSKNTAYLQMNSLRAEDTAVYYCARTGMYFGFFHHSWSNAALDYWGQGTLVTVSS
VL: DIQMTQSPSSLSASVGDRVTITCRASQSVSSAVAWYQQKPGKAPKLLIYSASSLYSGVPSRFSGSRSGTDFTLTISSLQPEDFATYYCQQISQYPITFGQGTKVEIK
With B4, the binding result with Nup85 [4] and with Nup145C was “binds” in each case.
